This note sets out measurements from US20090061451A1.

For the assay, the target named is mouse monoclonal PSA antibody. The experiment in a line: SPR, BIAcore 3000, antibody immobilised on CM5 chip. On the technique in general: SPR reads the build-up and loss of mass on a sensor chip optically.

As usually defined, the Kd is the free concentration of one partner at which half of the binding sites on the other are occupied at equilibrium, for simple one-to-one binding. “PSA-GOx complex (from UniProt P07288 25-261; P13006 23-605)” registered a Kd of 18.2 nM.
As for “Prostate specific antigen (PSA) (from UniProt P07288 25-261) (enzyme)”, the figure is 0.701 nM.
